Values of other authors as cited in PMC4245495.

Target: Uroplakin Ia (UniProt O00322)
Chain of UniProt O00322 (O00322 whole entry): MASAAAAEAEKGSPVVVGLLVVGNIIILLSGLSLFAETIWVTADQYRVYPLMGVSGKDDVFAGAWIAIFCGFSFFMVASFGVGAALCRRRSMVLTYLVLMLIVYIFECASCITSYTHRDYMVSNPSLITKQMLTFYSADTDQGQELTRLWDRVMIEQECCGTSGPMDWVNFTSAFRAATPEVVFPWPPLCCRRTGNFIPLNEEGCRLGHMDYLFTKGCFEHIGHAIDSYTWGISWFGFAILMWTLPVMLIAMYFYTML

- Kd: 100 nM
Substance: FimH (from UniProt P08191)
